Among the data in patent US20210340252A1 are IC50 (read off the curve) values, retold here.

The target of the assay is human TIM-3 protein (coated on ELISA plates) (human) (UniProt Q8TDQ0). Nature of the assay: competition ELISA on plate-coated human TIM-3 against biotinylated WBP340-BMK8 (self-competition), detection with SA-HRP. For orientation: An ELISA detects its analyte on a solid surface through an enzyme-linked reagent.

B1: WBP340-BMK8 (antibody, from another filing, human IgG4, V domains shown)
VH: QVQLVQSGAEVKKPGSSVKVSCKASGYTFTSYNMHWVRQAPGQGLEWMGDIYPGNGDTSYNQKFKGRVTITADKSTSTVYMELSSLRSEDTAVYYCARVGGAFPMDYWGQGTTVTVSS
VL: AIQLTQSPSSLSASVGDRVTITCRASESVEYYGTSLMQWYQQKPGKAPKLLIYAASNVESGVPSRFSGSGSGTDFTLTISSLQPEDFATYFCQQSRKDPSTFGGGTKVEIKR
B1 registered an IC50 (read off the curve) of 2 nM.
